Experimental findings from the supplement of paper PMC10567573 are described below.

The data set can be described thus: protein stability index of a GFP-peptide fusion (GPS, HEK-293T) (PSI 1-6); higher = more stable. The conditions noted are these: c terminus: a fixed tail appended.

± gives the standard deviation.
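Also: 24-mer peptide tiles fused after GFP, lentivirally expressed, FACS-sorted into six equal bins by GFP/DsRed ratio, decoded by Illumina sequencing, PSI is the read-weighted mean bin number.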

Consider ASRTWCFYNTEDIKDWEDRFYLLL [PTGFR], for which the protein stability index runs as follows: (treatment: DMSO) 2.15 ± 0.6; (treatment: MLN4924 1 uM, 8 h) 2.46 ± 0.38.

For the sequence ASRVSKVNDKRRKKSGEKEQHISK [KMT2E], the protein stability index (treatment: DMSO) is 4.69 ± 0.39 and the protein stability index (treatment: MLN4924 1 uM, 8 h) was determined as 4.45 ± 0.38.

On to ASVSDEELKRRVAEELALEQAKKE [CHCHD3], for which the protein stability index runs as follows: (treatment: DMSO) 5.76 ± 0.25; (treatment: MLN4924 1 uM, 8 h) 5.45 ± 0.49.

ATGLTSGLLSLLLPETLNSPLLET [SLC22A15]: the protein stability index reads like this: (treatment: DMSO) 2.2 ± 0.46; (treatment: MLN4924 1 uM, 8 h) 2.1 ± 0.23.

Turning to ATQSHSISSSSFGAEPSAPGGGGS [RTN3], the protein stability index by setting is: (treatment: DMSO) 5.19 ± 0.23; (treatment: MLN4924 1 uM, 8 h) 5.19 ± 0.093.

The sequence ATQTERRLDLAAVTLRRGLRSRAS [FAM189A2] showed a protein stability index (treatment: DMSO) of 4.02 ± 0.24 and a protein stability index (treatment: MLN4924 1 uM, 8 h) of 4.41 ± 0.2.

Consider ATRSIQVDGKTIKAQIWDTAGQER [RAB11A], for which the protein stability index by setting is: (treatment: DMSO) 4.28 ± 0.33; (treatment: MLN4924 1 uM, 8 h) 4.37 ± 0.19.

AVIAQQRRKPDPPKDENERSTCNV [DLC1] displayed a protein stability index (treatment: DMSO) of 5.24 ± 0.21 and a protein stability index (treatment: MLN4924 1 uM, 8 h) of 5.12 ± 0.19.

Take AVIGNFLYVVGGQSNYDTKGKTAV [KLHL13]: the protein stability index reads like this: (treatment: DMSO) 2.38 ± 0.73; (treatment: MLN4924 1 uM, 8 h) 2.24 ± 0.67.

Sequence AVIRWMHSFNFVLSANLHGGAVVA [CPN1] came in with a protein stability index (treatment: DMSO) of 2.95 ± 0.71 and a protein stability index (treatment: MLN4924 1 uM, 8 h) of 2.88 ± 0.19.

Turning to AVQKTDEGHPFKAYLELEITLSQE [RTN1], the protein stability index was 2.24 ± 0.24 (treatment: DMSO) and 2.56 ± 0.17 (treatment: MLN4924 1 uM, 8 h).

With AVSESYSAPGACEEPTERGNLEVG [FBXO34], the protein stability index worked out at 5.49 ± 0.12 (treatment: DMSO) and 5.57 ± 0.26 (treatment: MLN4924 1 uM, 8 h).

AYEFADRDEVRFFKGNKYWAVQGQ [MMP1]: the protein stability index reads like this: (treatment: DMSO) 2.54 ± 0.45; (treatment: MLN4924 1 uM, 8 h) 2.74 ± 0.61.

AYEFNPELVLVSAGFDAARGDPLG [HDAC6] had a protein stability index (treatment: DMSO) of 3.11 ± 0.58 and a protein stability index (treatment: MLN4924 1 uM, 8 h) of 3.58 ± 0.23.

Consider CDFKIDAGDRFLEALGFSWHDTCF [PDLIM7], for which the protein stability index is 2.6 ± 0.5 (treatment: DMSO) and 2.47 ± 0.46 (treatment: MLN4924 1 uM, 8 h).

Sequence CDKYPHESQLPEEWENNRESLIVF [CPXM2] had a protein stability index (treatment: DMSO) of 3.68 ± 0.11 and a protein stability index (treatment: MLN4924 1 uM, 8 h) of 3.44 ± 0.25.

Take CEEQKCEEEVFPLAMNYLDRFLAG [CCND2]: the protein stability index was 3.82 ± 0.17 (treatment: DMSO) and 4.05 ± 0.28 (treatment: MLN4924 1 uM, 8 h).

As for CETTLFALRMATWNQILDPWVYIL [PTGFR], the protein stability index (treatment: DMSO) came to 2.89 ± 0.16 and the protein stability index (treatment: MLN4924 1 uM, 8 h) turned out to be 2.93 ± 0.6.

Turning to CFSTGLSRRVLLTNVVTGHRQSFG [DCAF4], the protein stability index worked out at 2.1 ± 0.18 (treatment: DMSO) and 2.38 ± 0.21 (treatment: MLN4924 1 uM, 8 h).

Regarding CGVILYILLVGYPPFWDEDQHRLY [CAMK2A], the protein stability index is 2.98 ± 0.6 (treatment: DMSO) and 3.24 ± 0.91 (treatment: MLN4924 1 uM, 8 h).

Regarding CIHDHHCGSQLSSTKGSRSNLSTR [NETO1], the protein stability index is, setting by setting: (treatment: DMSO) 3.04 ± 0.52; (treatment: MLN4924 1 uM, 8 h) 3.33 ± 0.37.

As to CKESSPMPVICGPEENYPSLQMSS [NANOGP8], the protein stability index reads like this: (treatment: DMSO) 3.65 ± 0.27; (treatment: MLN4924 1 uM, 8 h) 3.74 ± 0.25.

Turning to CLKKFNARRKLKGAILTTMLATRN [CAMK2A], the protein stability index is, setting by setting: (treatment: DMSO) 3.21 ± 0.15; (treatment: MLN4924 1 uM, 8 h) 3.32 ± 0.34.

As for CLVCGDVASGYHYGVASCEACKAF [ESRRA], the protein stability index is, setting by setting: (treatment: DMSO) 3.96 ± 0.32; (treatment: MLN4924 1 uM, 8 h) 3.94 ± 0.23.

For CPRPCRESAFKLSTGTSRWPSAKS [SCNN1D], the protein stability index reads like this: (treatment: DMSO) 2.7 ± 0.62; (treatment: MLN4924 1 uM, 8 h) 2.65 ± 0.45.

Regarding CQEQIEALLESSLRQAQQNMDPKA [CCND1], the protein stability index is 4.85 ± 0.079 (treatment: DMSO) and 4.63 ± 0.19 (treatment: MLN4924 1 uM, 8 h).

Consider CQMFLGKTEAEIAHIALETLEGHQ [FLOT1], for which the protein stability index came out at 3.36 ± 0.43 (treatment: DMSO) and 3.37 ± 0.13 (treatment: MLN4924 1 uM, 8 h).

In turn, CTFSLTHPANRSCRETGSFLDLFR [SLC22A15] registered a protein stability index (treatment: DMSO) of 2.31 ± 0.33 and a protein stability index (treatment: MLN4924 1 uM, 8 h) of 2.14 ± 0.45.

Consider CVLADRLDCADALLKAGADVNKTD [INVS], for which the protein stability index is, setting by setting: (treatment: DMSO) 4.4 ± 0.48; (treatment: MLN4924 1 uM, 8 h) 4.17 ± 0.42.

Turning to DAKDELEERLERCMSIVTSMTAGV [INTS3], the protein stability index turned out to be 4.13 ± 0.3 (treatment: DMSO) and 4.09 ± 0.33 (treatment: MLN4924 1 uM, 8 h).

Regarding DCCQVSAPNRFFQKLNVFKNFIGL [NLN], the protein stability index is, setting by setting: (treatment: DMSO) 2.09 ± 0.51; (treatment: MLN4924 1 uM, 8 h) 2.17 ± 0.21.

DDATCRLYDLRADREVAIYSKESI [GNB5]: the protein stability index was found to be 3.51 ± 0.24 (treatment: DMSO) and 3.4 ± 0.17 (treatment: MLN4924 1 uM, 8 h).

On to DDEGWLHSGDLGQLDGLGFLYVTG [ACSBG2], for which the protein stability index amounted to 2.66 ± 0.33 (treatment: DMSO) and 2.54 ± 0.42 (treatment: MLN4924 1 uM, 8 h).

Turning to DDGSQDPEVLDRESRDRPSCAPSA [PWWP2B], the protein stability index (treatment: DMSO) was 5.43 ± 0.17 and the protein stability index (treatment: MLN4924 1 uM, 8 h) came out at 5.21 ± 0.13.

For the sequence DDKTDKRIFTFICKDSESNKHLCY [GULP1], the protein stability index came to 2.47 ± 0.45 (treatment: DMSO) and 2.51 ± 0.26 (treatment: MLN4924 1 uM, 8 h).

DEIENLLDSDHRELIGDYSKAFLL [CDC25B]: the protein stability index turned out to be 3.55 ± 0.36 (treatment: DMSO) and 3.41 ± 0.53 (treatment: MLN4924 1 uM, 8 h).
